Measured values reported in patent publication US20260226179A1 (MAB DESIGNS, published 2026).
Several values for one entry are separate records, joined by “and”; a condition that tells them apart may be missing. Identical values can stand only once.

T1: human soluble IL-6R (human, UniProt P08887 20-357)
T1 sequence: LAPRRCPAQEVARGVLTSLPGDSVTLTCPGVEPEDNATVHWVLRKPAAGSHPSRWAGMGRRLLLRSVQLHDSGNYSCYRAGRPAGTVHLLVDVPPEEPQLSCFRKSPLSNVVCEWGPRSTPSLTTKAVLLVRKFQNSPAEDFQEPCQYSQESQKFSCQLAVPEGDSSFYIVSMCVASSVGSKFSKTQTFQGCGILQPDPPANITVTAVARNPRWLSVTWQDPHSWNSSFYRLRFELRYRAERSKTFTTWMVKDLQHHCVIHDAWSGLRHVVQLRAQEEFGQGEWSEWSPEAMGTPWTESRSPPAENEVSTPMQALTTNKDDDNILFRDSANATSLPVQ

T2: human membrane-bound IL-6R subunit alpha (human, UniProt P08887 20-468)
T2 sequence: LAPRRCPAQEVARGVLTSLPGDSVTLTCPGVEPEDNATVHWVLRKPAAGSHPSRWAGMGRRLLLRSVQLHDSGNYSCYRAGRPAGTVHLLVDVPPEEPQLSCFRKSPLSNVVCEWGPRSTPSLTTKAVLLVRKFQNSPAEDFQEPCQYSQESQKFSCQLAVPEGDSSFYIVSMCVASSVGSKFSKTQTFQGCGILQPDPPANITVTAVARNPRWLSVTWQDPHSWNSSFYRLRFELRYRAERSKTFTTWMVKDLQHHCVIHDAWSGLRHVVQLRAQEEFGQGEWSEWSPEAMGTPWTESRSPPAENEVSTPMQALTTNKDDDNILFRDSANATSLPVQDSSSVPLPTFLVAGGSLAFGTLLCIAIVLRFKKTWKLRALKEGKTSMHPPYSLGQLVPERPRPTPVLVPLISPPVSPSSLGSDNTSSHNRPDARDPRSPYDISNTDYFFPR

B1: anti-IL-6R IgG antibody C07 (antibody, V domains shown)
VH: EVKLVESGGGLVQPGGSLKLSCAASGFTFSSYAMSWVRQTADKRLELVANINSNGGSTYYPDSVKGRFTISRDNAKNTLFLQMSSLKSEDTAMYYCAREGYYTMDYWGQGTSVTVSS
VL: DIVLTQSPASLAVSPGQRATISCRASESVDSYGNSFMNWYQQKPGQPPKLLIYLASNLESGVPARFSGSGSRTDFTLTIDPVEADDAATYYCQQNNEDPYTFGGGTKLEIK
B2: anti-IL-6R IgG antibody C20 (antibody, V domains shown)
VH: EVKLMESGGGLVQPGGSLKLSCAASGFTFSNYGMSWVRQTPDKRLELVAIINSNGGSTYYPDSVKGRFTISRDNAKNTLYLQMSSLKSEDTAIYYCARDGNFVSDYWGQGTTLTVSS
VL: DIVLTQSPASLAVSLGQRATISCRASESVDSYGNRFLNWYQQKPGQPPKLLIYLASNLESGVPARFSGSGSRTDFTLTIDPVEADDAATYYCQQNNEDPYTFGGGTKLEIK
B3: anti-IL-6R IgG antibody C19 (antibody, V domains shown)
VH: EVKLMESGGGLVQPGGSLKLSCAASGFTFSNYGMSWVRQTPDKRLELVAIMNSKGGSTYYPDSVMGRFTISRDNAKNTLYLQMSSLKSEDTAMYYCARDGYYTMDYWGQGTSVTVSS
VL: DIVLTQSPASLAVSLGQRATISCRASKSVDSFGNSFMHWYQQKPGQSPRLLIFLASNLESGVPARFSGSGSRTDFTLTIDPVEADDAATYYCQQNNEDPYTFGGGTKLEIK
B4: anti-IL-6R IgG antibody C12 (antibody, V domains shown)
VH: EVKLMESGGGLVQPGGSLKLSCAASGFTFSNYGMSWVRQTPDKRLEWVANINSNGGSTYYPDSVKGRFTISRDNAQNTLYLQMSSLKSEDTAMYYCTRDGNFVSDYWGQGTTLTVSS
VL: DIVLTQSPASLAVSPGQRATISCRASESVDSYGNSFMNWYQQKPGQPPKLLIYLASNLESGVPARFSGSGSRTDFTLTIDPVEADDAATYYCQQNNEDPYTFGGGTKLEIK
B5: anti-IL-6R IgG antibody C09 (antibody, V domains shown)
VH: EVQLVESGGDLVQPGGSLKLSCAASGFTFSNYGMSWVRQTPDKRLELVAAINSNGGSTYYPDSVKGRFTISRDNAKNTLYLQMSSLKSEDTAMYYCARDGNYVSDYWGQGTTLTVSS
VL: DIVLTQSPASLAVSLGQRATISCRASESVDSYGNSFMHWYQQKPGQPPKLLIYLASNLESGVPARFSGSGSRTDFTLTIDPVEADDAATYYCQQNNEDPWTFGGGTKLEIK

Tests used:
human soluble IL-6R = molecular target: T1, human soluble IL-6R; assay: cell-based or functional assay
[1] = molecular target: T2, human membrane-bound IL-6R subunit alpha; assay: cell-based or functional assay

Row | Binder | Proliferation in % (Ba/F3_gp130 cells, IL-6 + sIL-6R = 100%; IL-6 trans signalling) at IgG 10 ng/ml (human soluble IL-6R) [%] | Proliferation in % (Ba/F3_gp130 cells, IL-6 + sIL-6R = 100%; IL-6 trans signalling) at IgG 100 ng/ml (human soluble IL-6R) [%] | Proliferation in % (Ba/F3_gp130 cells, IL-6 + sIL-6R = 100%; IL-6 trans signalling) at IgG 300 ng/ml (human soluble IL-6R) [%] | Proliferation in % (Ba/F3_gp130 cells, IL-6 + sIL-6R = 100%; IL-6 trans signalling) at IgG 500 ng/ml (human soluble IL-6R) [%] | Proliferation in % (Ba/F3_gp130 cells, IL-6 + sIL-6R = 100%; IL-6 trans signalling) at IgG 700 ng/ml (human soluble IL-6R) [%] | Proliferation in % (Ba/F3_gp130 cells, IL-6 + sIL-6R = 100%; IL-6 trans signalling) at IgG 1,000 ng/ml (human soluble IL-6R) [%] | Proliferation in % (Ba/F3_gp130 cells, IL-6 + sIL-6R = 100%; IL-6 trans signalling) at IgG 10,000 ng/ml (human soluble IL-6R) [%] | IC50 for the inhibition of IL-6 classical signalling-induced proliferation (Ba/F3_gp130_IL-6R cells + IL-6) [1] [µg/mL] | IC50 for the inhibition of IL-6 mixed signalling-induced proliferation (Ba/F3_gp130_IL-6R cells + IL-6 + sIL-6R) [1]
1 | B1 | 98.8 | 92.2 | 78.3 | 70.2 | 55.3 | 41.2 | 9.6 | > 10 | > 10 µg/ml and > 53 nM
2 | B2 | 103 | 88.5 | 84.8 | 52.8 | 36.1 | 16.3 | 6.5 | > 10 | > 10 µg/ml and > 53 nM
3 | B3 | 99.2 | 92.2 | 88.5 | 78.3 | 72.3 | 57.7 | 10.8 | > 10 | > 10 µg/ml and > 53 nM
4 | B4 | 101 | 98.9 | 89.1 | 75.3 | 66.9 | 48.1 | 11.6 | > 10 | > 10 µg/ml and > 53 nM
5 | B5 | 98.2 | 93.1 | 88.3 | 82.6 | 82.5 | 72.9 | 25.8 | > 10 | > 10 µg/ml and > 53 nM
